Reference: the supplement of paper PMC5998384

Experiments:
[1] = test system: HeLa Kyoto; assay: solubility change mitosis vs G1/S (difference of NP-40 vs SDS log2 ratios) (log2 ratio difference); higher = more soluble in mitosis
[2] = test system: HeLa Kyoto; assay: thermal stability score vs G1/S (z-score of summed log2 fold changes over temperatures); higher = more thermally stable than in G1/S
[3] = test system: HeLa Kyoto; assay: melting temperature (median over replicates), in situ; higher = more thermally stable
[4] = test system: HeLa Kyoto; assay: solubility in G1/S (NP-40 vs SDS abundance) (log2 ratio); higher = more soluble; conditions: cell cycle stage: G1/S
[5] = cell cycle stage: early G1 (4.5 h after nocodazole release)
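Wherever melting temperature (median over replicates), in situ is given: HeLa Kyoto cells synchronized by double thymidine or nocodazole block, proteins quantified by TMT10plex mass spectrometry, three independent biological replicates.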
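Wherever solubility change mitosis vs G1/S (difference of NP-40 vs SDS log2 ratios) is given: synchronized HeLa Kyoto cells (double thymidine block for G1/S, nocodazole release for mitosis), protein amounts in NP-40 versus SDS lysates quantified by mass spectrometry, three biological replicates.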
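Wherever solubility in G1/S (NP-40 vs SDS abundance) is given: HeLa Kyoto cells arrested at G1/S by double thymidine block, proteins quantified by TMT10plex mass spectrometry in mild NP-40 versus SDS extracts, three biological replicates.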
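Wherever thermal stability score vs G1/S (z-score of summed log2 fold changes over temperatures) is given: synchronized HeLa Kyoto cells, proteins quantified by TMT10plex mass spectrometry, three biological replicates, mitosis taken 0.5 h after nocodazole release, G1/S directly after double thymidine block.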

Sequence	solubility change mitosis (log2) [1]	thermal stability score [2, 5]	thermal stability score ([2]; cell cycle stage: mitosis)	melting temperature ([3]; cell cycle stage: G1/S)	melting temperature ([3]; cell cycle stage: mitosis)	solubility in G1/S (log2) [4]
MANNDAVLKRLEQKGAEADQIIEYLKQQVSLLKEKAILQATLREEKKLRVENAKLKKEIEELKQELIQAEIQNGVKQIPFPSGTPLHANSMVSENVIQSTAVTTVSSGTKEQIKGGTGDEKKAKEKIEKKGEKKEKKQQSIAGSADSKPIDVSRLDLRIGCIITARKHPDADSLYVEEVDVGEIAPRTVVSGLVNHVPLEQMQNRMVILLCNLKPAKMRGVLSQAMVMCASSPEKIEILAPPNGSVPGDRITFDAFPGEPDKELNPKKKIWEQIQPDLHTNDECVATYKGVPFEVKGKGVCRAQTMSNSGIK [AIMP1]	0.02	-0.0166	1.24	48.3 °C	49.1 °C	0.468
MDHYDSQQTNDYMQPEEDWDRDLLLDPAWEKQQRKTFTAWCNSHLRKAGTQIENIEEDFRDGLKLMLLLEVISGERLAKPERGKMRVHKISNVNKALDFIASKGVKLVSIGAEEIVDGNVKMTLGMIWTIILRFAIQDISVEETSAKEGLLLWCQRKTAPYKNVNIQNFHISWKDGLGFCALIHRHRPELIDYGKLRKDDPLTNLNTAFDVAEKYLDIPKMLDAEDIVGTARPDEKAIMTYVSSFYHAFSGAQKAETAANRICKVLAVNQENEQLMEDYEKLASDLLEWIRRTIPWLENRVPENTMHAMQQKLEDFRDYRRLHKPPKVQEKCQLEINFNTLQTKLRLSNRPAFMPSEGRMVSDINNAWGCLEQVEKGYEEWLLNEIRRLERLDHLAEKFRQKASIHEAWTDGKEAMLRQKDYETATLSEIKALLKKHEAFESDLAAHQDRVEQIAAIAQELNELDYYDSPSVNARCQKICDQWDNLGALTQKRREALERTEKLLETIDQLYLEYAKRAAPFNNWMEGAMEDLQDTFIVHTIEEIQGLTTAHEQFKATLPDADKERLAILGIHNEVSKIVQTYHVNMAGTNPYTTITPQEINGKWDHVRQLVPRRDQALTEEHARQQHNERLRKQFGAQANVIGPWIQTKMEEIGRISIEMHGTLEDQLSHLRQYEKSIVNYKPKIDQLEGDHQLIQEALIFDNKHTNYTMEHIRVGWEQLLTTIARTINEVENQILTRDAKGISQEQMNEFRASFNHFDRDHSGTLGPEEFKACLISLGYDIGNDPQGEAEFARIMSIVDPNRLGVVTFQAFIDFMSRETADTDTADQVMASFKILAGDKNYITMDELRRELPPDQAEYCIARMAPYTGPDSVPGALDYMSFSTALYGESDL [ACTN1]	0.09	-0.623	-1.86	58.3 °C	55.9 °C	-0.1
MTEEACRTRSQKRALERDPTEDDVESKKIKMERGLLASDLNTDGDMRVTPEPGAGPTQGLLRATEATAMAMGRGEGLVGDGPVDMRTSHSDMKSERRPPSPDVIVLSDNEQPSSPRVNGLTTVALKETSTEALMKSSPEERERMIKQLKEELRLEEAKLVLLKKLRQSQIQKEATAQKPTGSVGSTVTTPPPLVRGTQNIPAGKPSLQTSSARMPGSVIPPPLVRGGQQASSKLGPQASSQVVMPPLVRGAQQIHSIRQHSSTGPPPLLLAPRASVPSVQIQGQRIIQQGLIRVANVPNTSLLVNIPQPTPASLKGTTATSAQANSTPTSVASVVTSAESPASRQAAAKLALRKQLEKTLLEIPPPKPPAPEMNFLPSAANNEFIYLVGLEEVVQNLLETQGRMSAATVLSREPYMCAQCKTDFTCRWREEKSGAIMCENCMTTNQKKALKVEHTSRLKAAFVKALQQEQEIEQRLLQQGTAPAQAKAEPTAAPHPVLKQVIKPRRKLAFRSGEARDWSNGAVLQASSQLSRGSATTPRGVLHTFSPSPKLQNSASATALVSRTGRHSERTVSAGKGSATSNWKKTPLSTGGTLAFVSPSLAVHKSSSAVDRQREYLLDMIPPRSIPQSATWK [GATAD2A]	0.0452	0.921	3.21	47.3 °C	50.4 °C	0.481
